{"source": "patent US20150160214A1", "about": "“Quantitation of Cellular Adhesion Dynamics Across Immobilized Receptors Under Rheological Shear Flow” (Mayo Foundation for Medical Education and Research, priority 2013, published 2015)", "key": {"[1]": {"experiment": "Irreversible thermal denaturation by CD, intrinsic fluorescence and ANS fluorescence (Example 2)", "format": "physicochemical", "conditions": "2° Celsius/min", "protocol": "The unfolding of disulfide-intact A1 and RCAM A1 was also monitored via CD at 222 nm, intrinsic protein fluorescence at 280 nm/359 nm and ANS fluorescence at 350 nm/495 nm as a function of temperature.\nCD thermalscans were recorded between 10 and 95° Celsius at 222 nm with a protein concentration of 1 μM in a 1 cm quartz cell under moderate stirring. Prior to each measurement protein samples were equilibrated at 10° Celsius for 10-15 min in order to obtain a stable baseline. The scanrate for all Thermalscans was 2° Celsius/min. The integration time for each data point was 20 s, the bandwidth 1 nm. All measured CD data were converted into mean molar ellipticities per amino acid residue.\nThermalscans monitoring protein fluorescence were recorded at an emission wavelength of 359 nm after excitation at 280 nm using a protein concentration of 2 μM in a 1 cm quartz cell under moderate stirring. ANS-Thermalscans were recorded at 495 nm after Excitation at 350 nm using 1 μM protein and 100 μM ANS. Prior to any performed thermalscan samples were equilibrated for 10-15 min. The scanrate was 2° Celsius/min. At each temperature between 10 or 20° Celsius and 95° Celsius relative fluorescence intensity was collected for 4 s and averaged."}, "[2]": {"experiment": "Acrylamide quenching of tryptophan fluorescence (Stern-Volmer)", "format": "physicochemical", "protocol": "This was also confirmed via acrylamide induced tryotophan fluorescence quenching performed with an excitation wavelength of 295 nm.\nInitially a quenching determination was performed with disulfide-intact A1 at 20° Celsius and at 1° Celsius in order to distinguish between static and collisional quenching. […] Clear evidence for collisional quenching could be obtained for the A1-domain since the Stern-Volmer constant decreased from 2.6±0.03 to 2.2±0.03 M−1, FIG. 16A, ruling out a static quenching mechanism.\nAcrylamide quenching of tryptophan was performed using an excitation wavelength of 295 nm. After the addition of a certain amount of buffered acrylamide solution the protein solution was equilibrated for ˜5 min and then a fluorescence spectrum between 320 and 400 nm was recorded. Stern-Volmer constants were determined from the fluorescence intensity at 359 nm using the Stern-Volmer equation as described by Lakowicz (Lakowicz:2006)\nwhere KD is the Stern-Volmer quenching constant and KD-1 is the concentration of acrylamide at which F0/F=2 and 50% of the fluorescence intensity is quenched."}, "platelet GPIbα": {"target": "T1, platelet GPIbα (Homo sapiens, UniProt P07359)", "T1 construct": "endogenous in cells; host or cells: platelets in citrated whole blood of normal healthy volunteer donors", "experiment": "Platelet pause times on surface-captured A1 domain variants, parallel plate flow chamber (Table 4, Example 3)", "format": "cell-based", "conditions": "shear rate 1500 s^−1; mean ± std. dev., number of measurements in parentheses; NB = No Binding", "protocol": "The determination and analysis of platelet pause times and instantaneous translocation velocities over surface captured A1 and RCAM A1 was performed as previously described (Tischer:2013). Here, the inventor used the Cellix Mims Evo syringe pump controlled by VenaFluxAssay (www.cellixltd.com). Vena8™ CGS biochips were custom designed with 800 μm width by 80 μm height microchannels bonded to glass slides with a Cu^2+ chelated PEG surface serviced by Microsurfaces Inc. (www.proteinslides.com/histag.html) to which the A1 and RCAM A1 in TBS were captured by the 6×His-Tag at a total concentration of 5 μM. Citrated whole blood was obtained from the informed consent of healthy volunteer donors with approval from the Mayo Clinic Institutional Review Board and 100 μL was perfused over the surface captured A1 domains at 700 s^−1. The shear was increased or decreased in a stepwise manner to measure the dynamics of platelet adhesion at high and low shear. After allowing the flow chamber to equilibrate for 50 s at each shear rate, 1 min movies were recorded at 24 frames per second in phase contrast at 200× magnification with 2×2 pixel binning on a Zeiss AxioCam Mrm camera (6.45 μm/px) attached to a Zeiss Axio Observer.D1 inverted microscope. Tracking analysis was performed using MediaCybernetics ImagePro® Premier (www.mediacy.com/index.aspx?page=IP\\_Premier) The distance travelled in the direction of flow was calculated from the coordinate data for each platelet as a function of time using √{square root over ((xt−x0)^2)}, where x0 is the coordinates of a platelet on the first frame of the movie and xt is the coordinate on subsequent frames of the movie. These trajectories were differentiated into instantaneous velocities using a Savitzky-Golay algorithm (Savitzky:1964) with a five data point window size and a second order polynomial implemented into a Mathematica (www.wolfram.com/mathematica) notebook written in our lab. Trajectories were retained for statistical analysis if the platelet was present for ≧1 s and travelled a total distance greater than 1 Distance travelled in pixels (px) was converted to (μm) using 6.45 μm/px*2/200=0.0645 μm/px. Pause times were determined by the amount of time (sec) a platelets velocity was 0±4 px/s≅0±0.23 μm/s, within the noise. Data are reported as mean velocities and pause times attained by individual platelets averaged over all platelets analyzed. Integral analysis of the cumulative pause time histogram gives the survival fraction, equation (24).\nThe rheological interaction of platelets with A1 domain variants harboring type 2M and type 2B mutations was studied using recently developed flow-chamber methods (19). The A1 domains ([…]) were immobilized on Vena8™ biochips (Cellix, Dublin, Ireland) coated with a Cu^2+-chelated poly-ethylene-glycol surface serviced by MicroSurfaces, Inc. (Englewood, N.J.) via the 6×His-Tag, enabling the preservation of the structural properties of the domain in solution and its concomitant effects on platelet adhesion under rheological shear flow. One-hundred microliters of citrated whole blood, obtained from the informed consent of normal healthy volunteer donors with approval from the Mayo Clinic Institutional Review Board (Rochester, Minn.), was perfused at a shear rate of 800 s^−1 followed by Tris-buffered saline. Platelets translocating on the surface-captured domains were filmed at 24 frames/s for 1 min at logarithmic intervals of the shear rate. Coordinates obtained from tracking analysis of the resulting movies were processed using the inventor recently developed statistical analytics for the quantification of cellular adhesion dynamics across immobilized receptors under rheological shear flow (supra). Biochips lacking the surface-captured A1 domain were completely inert to platelets."}, "[3]": {"conditions": "determined previously (Auton:2009); cited from earlier work"}}, "data": [{"substance": "A1-1238: Recombinant human vWF A1 domain, amino acids Q1238-P1471, with N-terminal 6×His-Tag, disulfide intact", "values": [{"measurement": "T*", "setting": "[1]; ANS Fluorescence", "value": 64.4, "unit": "°C"}, {"measurement": "ΔH*", "setting": "[1]; ANS Fluorescence", "value": 63.8, "unit": "kcal/mol"}, {"measurement": "T*", "setting": "[1]; Circular Dichroism", "value": 65, "unit": "°C"}, {"measurement": "ΔH*", "setting": "[1]; Circular Dichroism", "value": 65, "unit": "kcal/mol"}, {"measurement": "T*", "setting": "[1]; Intrinsic Fluorescence", "value": 63, "unit": "°C"}, {"measurement": "ΔH*", "setting": "[1]; Intrinsic Fluorescence", "value": 60.7, "unit": "kcal/mol"}, {"measurement": "Stern-Volmer constant", "setting": "[2]; 2 M GdnHCl", "value": "6.0 ± 0.1", "unit": "M⁻¹"}, {"measurement": "Stern-Volmer constant", "setting": "[2]; buffer, 1° Celsius", "value": "2.2 ± 0.03", "unit": "M⁻¹"}, {"measurement": "Stern-Volmer constant", "setting": "[2]; buffer, 20° Celsius", "value": "2.6 ± 0.03", "unit": "M⁻¹"}, {"measurement": "Pause Time 1500 s^−1 (s)", "setting": "platelet GPIbα", "value": "0.67 ± 0.07 (6) s"}, {"measurement": "Tm from reversible N<->I urea-temperature phase diagram", "setting": "[3]", "value": "51.1±0.5", "unit": "° Celsius"}]}]}
